One series concerns the target T1, StyA1 (Rhodococcus opacus, UniProt C7ACG0).
T1 construct: N-terminal His10 tag kept, E. coli BL21; apo form purified; monomer-dimer, dimer with reduced FAD; oxygenase assays with P. fluorescens ST StyB as coupling reductase
Description: analytical gel filtration, oligomer shift. It is filed as binding. The note with it: 12.7 µM FAD, no dithionite; 10 mM Tris-HCl pH 7.2, 500 mM NaCl, 22 °C. For orientation: In gel filtration, larger molecules generally elute earlier.

For a further series, the target named is T2, StyA (Rhodococcus opacus, UniProt A0A076JVU4).
T2 construct: full length, 427 residues, 46,580 Da calculated; apo form purified; monomer; P. fluorescens ST StyB as coupling reductase in oxygenase assays
Description: HPLC of phenyl vinyl sulfoxide formed. The series is classed as biochemical. The note with it: StyB of P. fluorescens ST (threefold excess), FAD, NADH regeneration by formate dehydrogenase, catalase.

For series [1], the target named is StyA2B self-sufficient styrene monooxygenase from Rhodococcus opacus 1CP (Rhodococcus opacus 1CP) (UniProt C7ACG1). Description: SEC; analytical gel filtration, Superdex 200 HR 10/30, 22°C, 10 mM Tris-HCl pH 7.2, 500 mM NaCl; oxidized holoenzyme, 12.7 µM FAD in buffer and sample.
For series [2] the target is unchanged. Description: SEC; analytical gel filtration, Superdex 200 HR 10/30, 22°C, 10 mM Tris-HCl pH 7.2, 500 mM NaCl; reduced holoenzyme, 12.7 µM FAD and 1 mM sodium dithionite, anaerobic buffer.
The target is the same in series [3]. Description: SEC; analytical gel filtration, Superdex 200 HR 10/30, 22°C, 0.6 mL/min, 10 mM Tris-HCl pH 7.2, 500 mM NaCl; 100 µL of protein (1.95 mg/mL StyA1, 2.17 mg/mL StyA2B, 11.45 mg/mL StyA); apo-enzyme, no FAD.
Series [4] has as its target StyA1 styrene monooxygenase from Rhodococcus opacus 1CP (Rhodococcus opacus 1CP) (UniProt C7ACG0). Description: SEC; analytical gel filtration, Superdex 200 HR 10/30, 22°C, 10 mM Tris-HCl pH 7.2, 500 mM NaCl; oxidized holoenzyme, 12.7 µM FAD in buffer and sample.
Series [5] shares this target. Description: SEC; analytical gel filtration, Superdex 200 HR 10/30, 22°C, 10 mM Tris-HCl pH 7.2, 500 mM NaCl; reduced holoenzyme, 12.7 µM FAD and 1 mM sodium dithionite, anaerobic buffer.
Series [6] has the same target. Description: SEC; analytical gel filtration, Superdex 200 HR 10/30, 22°C, 0.6 mL/min, 10 mM Tris-HCl pH 7.2, 500 mM NaCl; 100 µL of protein (1.95 mg/mL StyA1, 2.17 mg/mL StyA2B, 11.45 mg/mL StyA); apo-enzyme, no FAD.
Substrate in series [7]: Cc1cc2nc3c(=O)[nH]c(=O)nc-3n(C[C@H](O)[C@H](O)[C@H](O)COP(=O)(O)OP(=O)(O)OC[C@H]3O[C@@H](n4cnc5c(N)ncnc54)[C@H](O)[C@@H]3O)c2cc1C
Description: NADH consumption, spectrophotometric, Michaelis-Menten fit. It is filed as biochemical, Rhodococcus opacus. The note with it: NADH in excess, 8 mM Tris-HCl pH 7.5, 30 °C, read at 320 nm, apparent constant. From the text: (§1) NADH consumption, spectrophotometric, Michaelis-Menten fit on StyB-1CP (StyB from Rhodococcus opacus 1CP)

Substrate in series [8]: NC(=O)C1=CN([C@@H]2O[C@H](COP(=O)(O)OP(=O)(O)OC[C@H]3O[C@@H](n4cnc5c(N)ncnc54)[C@H](O)[C@@H]3O)[C@@H](O)[C@H]2O)C=CC1
Described as above. The series is classed as biochemical, Rhodococcus opacus. The note with it: FAD in excess, 8 mM Tris-HCl pH 7.5, 30 °C, read at 320 nm, apparent constant.
Excerpt: as §1

Series [9] deals with the molecule itself. Description: SEC; data not shown; StyB in the presence of the cofactor FAD; method taken from the section on quaternary structure (analytical gel filtration), not given.
Substrate in series [10]: Cc1cc2nc3c(=O)[nH]c(=O)nc-3n(C[C@H](O)[C@H](O)[C@H](O)COP(=O)(O)OP(=O)(O)OC[C@H]3O[C@@H](n4cnc5c(N)ncnc54)[C@H](O)[C@@H]3O)c2cc1C
Description: purified protein. The series is classed as biochemical, Pseudomonas fluorescens. To be noted: NADH in excess, 8 mM Tris-HCl pH 7.5, 30 °C.

Substrate in series [11]: NC(=O)C1=CN([C@@H]2O[C@H](COP(=O)(O)OP(=O)(O)OC[C@H]3O[C@@H](n4cnc5c(N)ncnc54)[C@H](O)[C@@H]3O)[C@@H](O)[C@H]2O)C=CC1
Description: purified protein. It is filed as biochemical, Pseudomonas fluorescens. The note with it: FAD in excess, 8 mM Tris-HCl pH 7.5, 30 °C.

Series [12] deals with the molecule itself. Description: SEC; analytical gel filtration, Superdex 200 HR 10/30, 22°C, 10 mM Tris-HCl pH 7.2, 500 mM NaCl; oxidized holoenzyme, 12.7 µM FAD in buffer and sample.
Series [13] concerns the molecule itself. Description: SEC; analytical gel filtration, Superdex 200 HR 10/30, 22°C, 0.6 mL/min, 10 mM Tris-HCl pH 7.2, 500 mM NaCl; 100 µL of protein (1.95 mg/mL StyA1, 2.17 mg/mL StyA2B, 11.45 mg/mL StyA); apo-enzyme, no FAD.

Values joined by “and” are separate entries in the source; they are usually repeats but may differ in a detail not shown here. Identical values can stand only once.

T1 sequence (C7ACG0 entry or part of it): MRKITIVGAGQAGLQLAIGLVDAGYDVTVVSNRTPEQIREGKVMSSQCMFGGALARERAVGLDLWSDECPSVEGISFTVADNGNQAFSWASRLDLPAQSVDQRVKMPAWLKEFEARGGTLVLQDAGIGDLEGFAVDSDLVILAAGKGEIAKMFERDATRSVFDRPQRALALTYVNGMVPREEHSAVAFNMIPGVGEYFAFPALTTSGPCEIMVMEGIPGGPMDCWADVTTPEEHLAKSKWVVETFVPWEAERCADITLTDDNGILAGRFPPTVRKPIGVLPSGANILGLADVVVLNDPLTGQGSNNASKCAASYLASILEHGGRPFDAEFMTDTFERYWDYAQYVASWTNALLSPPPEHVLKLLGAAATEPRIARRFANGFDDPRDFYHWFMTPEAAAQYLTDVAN

As for `Cc1cc2nc3c(=O)[nH]c(=O)nc-3n(C[C@H](O)[C@H](O)[C@H](O)COP(=O)(O)OP(=O)(O)OC[C@H]3O[C@@H](n4cnc5c(N)ncnc54)[C@H](O)[C@@H]3O)c2cc1C` [FAD], the “analytical gel filtration, oligomer shift” value on StyA1 is “For holo-StyA1, the equilibrium shifted towards the dimeric form”.
For `C=CSc1ccccc1` [phenyl vinyl sulfide], the “HPLC of phenyl vinyl sulfoxide formed” value at StyA was “All three SMO isoforms were found to convert this substrate”.
Turning to “StyA2B self-sufficient styrene monooxygenase from Rhodococcus opacus 1CP (from UniProt C7ACG1 1-573) (enzyme)”, the stoichiometry N in [1], in series [2] and in [3] was 2 each time.
Take “StyA1 styrene monooxygenase from Rhodococcus opacus 1CP (from UniProt C7ACG0 1-406) (enzyme)”: the stoichiometry N in series [4], in series [5] and in series [6] was 2 each time.

B1: StyB flavin reductase from Rhodococcus opacus 1CP (enzyme, UniProt A0A076K0M4 1-177, looked up)
chain: MTRAAEAPPAPEVLSAPVEVAADSTQFRNSVALFATGIAVVTMQDGEGGVHGATINSFTSISLDPPTVMISLKPGYAHELISKSGWYGVSVLSKTQQEHSRYFCGTRDSDWHPQFVAGENVPTLFGSLARFECKVIDTITVNDHTLFLARVARCESEDGSPLMFFASTYHQPALGES
notes: StyB, FAD reductase of the styABCD cluster, Rhodococcus opacus 1CP, 178 amino acid residues, calculated mass 19,053 Da; also called StyB-1CP; source: E. coli BL21, purified (HisTrap FF IMAC), concentrated in the presence of 10 µM FAD
As to B1, in [7], the Km (usually the substrate concentration at which the rate is half of its maximum) turned out to be 108.3 ± 18.3 µM; the kcat (as a rule, the maximal rate divided by the concentration of active sites) came to 32.9 ± 2.3 s⁻¹; the kcat/Km (as a rule, the turnover number divided by the Michaelis constant) came to 304000 M⁻¹ s⁻¹. Also, in series [8], the Michaelis-Menten constant (Km) is 59.3 ± 4.2 µM, the turnover number (kcat) worked out at 26.9 ± 0.6 s⁻¹ and the kcat/Km is 454000 M⁻¹ s⁻¹. The stoichiometry N (commonly the number of molecules, sites or subunits per partner or assembly) in series [9] amounted to 2.

B2: StyB-ST (StyB from P. fluorescens ST) (Pseudomonas fluorescens) (protein)
chain: MTLKKDVAVDIDSTCFRQAVALFATGIAVLSAETEEGEVHGMTVNSFTSISLDPPTVMVSLKSGRMHELLTRGGRFGVSLLGESQKVFSAFFSKRVMDDTPSPAFTIQAGLPTLRDAMAWFECEVESTVQVHDHTLFIARVSACGTPEANAPQPLLFFASRYHGKPLPLN
notes: full length; E. coli BL21
Consider B2, for which, in the series “purified protein [10]”, the Km amounted to 2.6 ± 0.4 µM, the kcat was 8.7 ± 0.3 s⁻¹ and the specificity constant (kcat/Km) came out at 3.35e+06 M⁻¹ s⁻¹. For the same molecule, in the series “purified protein [11]”, the Michaelis constant (Km) is given as 18.9 ± 1.0 µM, the kcat was determined as 8.8 ± 0.1 s⁻¹ and the catalytic efficiency (kcat/Km) turned out to be 466000 M⁻¹ s⁻¹.

B3: StyA styrene monooxygenase from Rhodococcus opacus 1CP (styABCD cluster) (enzyme, UniProt A0A076JVU4 1-426, looked up)
chain: MSKRIAIVGAGTAGLHLGLYLNEKGIDATIFTDRRPEEYANIRLLNTVAHHSVTIDREDALGIDHWPNDGYFGHYYYVGIPGMPIRSYGDLAKPSRAVDYRILQPQLMRDFEERGGKIEYRPIRVEDLTVLSDDYDLVVIGTGKGGLGTLFARDEQSSPFTEPQRQLCVGIFKGIAPAETRAVTFCISPGAGEMIEIPTVTFSGDATALVFENHIGSDLEVLAHTRYEDDPRAFLDLMIEKLKQHYPITAERLDEKEFDVANSHLDILQGGVTPTVRHGHVKLDNGKLAVLLGDAHATVDPVLGQGGNMASYAAHVLGEEIAGNEVYDELFCERVDARRAGRVLGATRWTNFMLSNLKELPNHFVEFLGRVMMDRQLADRFTDNFNYPEKQWDIFSSPENMVAWIEANETGAEETERPFAQTGAQS
notes: StyA of the styABCD cluster, Rhodococcus opacus 1CP, 427 amino acid residues, calculated mass 46,580 Da; amplified from genomic DNA with printed primers that hold the start codon (NdeI CATATG) and the stop codon (TCA in the reverse primer); Apparent subunit mass 50 kDa including the His-tag (SDS-PAGE); also called holo-StyA; source: E. coli BL21, purified (HisTrap FF IMAC)
As for B3, the “stoichiometry N” value in [12] is 2; in series [13], 2 and 4.

Source of the values: paper PMC4460183, “Catalytic and hydrodynamic properties of styrene monooxygenases from Rhodococcus opacus 1CP are modulated by cofactor binding” (AMB Express, 2015).
